Source: paper PMC7969034

T1: p204 HINab (Mus musculus, UniProt P0DOV2 216-619)
T1 sequence: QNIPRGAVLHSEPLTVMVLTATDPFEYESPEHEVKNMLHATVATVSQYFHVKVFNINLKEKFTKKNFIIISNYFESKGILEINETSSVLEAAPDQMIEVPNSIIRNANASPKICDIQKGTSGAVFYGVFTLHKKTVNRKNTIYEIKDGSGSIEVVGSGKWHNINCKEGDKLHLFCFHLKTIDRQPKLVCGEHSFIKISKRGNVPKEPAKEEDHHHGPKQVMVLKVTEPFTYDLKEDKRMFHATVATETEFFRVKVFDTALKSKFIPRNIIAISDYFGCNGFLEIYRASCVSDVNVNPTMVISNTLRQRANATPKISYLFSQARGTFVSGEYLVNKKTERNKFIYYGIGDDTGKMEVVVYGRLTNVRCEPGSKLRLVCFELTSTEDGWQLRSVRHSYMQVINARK

T2: p204 HINa (Mus musculus, UniProt P0DOV2 216-417)
T2 sequence: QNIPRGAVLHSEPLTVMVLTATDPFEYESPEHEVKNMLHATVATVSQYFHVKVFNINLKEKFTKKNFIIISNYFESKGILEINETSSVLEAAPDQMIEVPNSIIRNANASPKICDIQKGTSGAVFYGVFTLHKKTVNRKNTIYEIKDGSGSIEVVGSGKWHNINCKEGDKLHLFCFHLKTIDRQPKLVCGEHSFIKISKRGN

T3: p204 HINb (Mus musculus, UniProt P0DOV2 427-619)
T3 sequence: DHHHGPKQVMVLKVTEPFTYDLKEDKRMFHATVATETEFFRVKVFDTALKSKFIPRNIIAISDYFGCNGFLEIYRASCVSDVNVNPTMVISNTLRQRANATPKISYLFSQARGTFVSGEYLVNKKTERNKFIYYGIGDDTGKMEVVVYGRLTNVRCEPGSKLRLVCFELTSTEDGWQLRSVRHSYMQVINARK


Experiments:
[1] = molecular target: T1, p204 HINab; test: fluorescence polarization
[2] = molecular target: T2, p204 HINa; test: fluorescence polarization
[3] = molecular target: T3, p204 HINb; test: fluorescence polarization
[4] = molecular target: T1, p204 HINab; test: X-ray crystallography

| Binder | Kd [1] [µM] | Kd [2] [µM] | Kd [3] [µM] | binding result [4] |
| --- | --- | --- | --- | --- |
| 20 mer dsDNA (dsDNA) DNA 1: TAAGACACGATGCGATAAAA DNA 2: TTTTATCGCATCGTGTCTTA | 156 ± 37.5 |  |  |  |
| 30 mer dsDNA (dsDNA) DNA 1: CCATCAGAAAGAGGTTTAATATTTTTGTGA DNA 2: TCACAAAAATATTAAACCTCTTTCTGATGG | 13.5 ± 2.39 | 193 ± 77 | 157 ± 37.2 |  |
| 16 mer dsDNA (crystal) (dsDNA) DNA 1: CCATCAGAAAGAGAGC DNA 2: GCTCTCTTTCTGATGG |  |  |  | binds |
